B1: Ic_S1_P4E.1_K4.1_C4.1_H4.1_A4.1_[T5G]_[A6T]_F4.1_[A9T]_T4.1 (ssRNA)
RNA: UCUCUUUGUAGUUUUUCUCUU
B2: Ib_S1_P3E.1_K3.1_C3.1_H3.1_A3.1_F3.1_[T7A]_[A8G]_T3.1 (ssRNA)
RNA: UCUCUUUGUAUAAGUCUCUU
B3: Ic_S1_P4E.1_K4.1_C4.1_H4.1_A4.1_[T5C]_[A6G]_[T7G]_F4.1_[T8C]_[A9C]_T4.1 (ssRNA)
RNA: UCUCUUUGUACGGCCUCUCUU
B4: Ic_S1_P4E.1_K4.1_C4.1_H4.1_A4.1_[T5G]_[A6T]_[T7C]_F4.1_[T8A]_[A9T]_T4.1 (ssRNA)
RNA: UCUCUUUGUAGUCAUUCUCUU
B5: Ic_S1_P4E.1_K4.1_C4.1_H4.1_A4.1_[T5G]_[A6T]_F4.1_[T8A]_[A9T]_T4.1 (ssRNA)
RNA: UCUCUUUGUAGUUAUUCUCUU
B6: Ic_S1_P4E.1_K4.1_C4.1_H4.1_A4.1_[T5C]_[A6G]_[T7G]_F4.1_[T8C]_T4.1 (ssRNA)
RNA: UCUCUUUGUACGGCAUCUCUU
B7: Ic_S1_P3E.1_K3.1_C3.1_H3.1_A3.1_[T5A]_F3.1_T3.1 (ssRNA)
RNA: UCUCUUUGUAAAUAUCUCUU
B8: Ic_S1_P4E.1_K4.1_C4.1_H4.1_A4.1_[T5C]_[A6G]_[T7G]_F4.1_[A9T]_T4.1 (ssRNA)
RNA: UCUCUUUGUACGGUUUCUCUU
B9: Ic_S1_P4E.1_K4.1_C4.1_H4.1_A4.1_[T5G]_[A6T]_[T7C]_F4.1_[T8G]_[A9C]_T4.1 (ssRNA)
RNA: UCUCUUUGUAGUCGCUCUCUU
B10: Ic_S1_P4E.1_K4.1_C4.1_H4.1_A4.1_[T5C]_[A6G]_[T7G]_F4.1_[A9C]_T4.1 (ssRNA)
RNA: UCUCUUUGUACGGUCUCUCUU
B11: Ic_S1_P4E.1_K4.1_C4.1_H4.1_A4.1_[T5G]_[A6T]_[T7G]_F4.1_T4.1 (ssRNA)
RNA: UCUCUUUGUAGUGUAUCUCUU
B12: Ic_S1_P4E.1_K4.1_C4.1_H4.1_A4.1_[T5G]_[A6T]_[T7G]_F4.1_[A9T]_T4.1 (ssRNA)
RNA: UCUCUUUGUAGUGUUUCUCUU
B13: Ic_S1_P4E.1_K4.1_C4.1_H4.1_A4.1_[T5G]_[A6T]_F4.1_[T8C]_T4.1 (ssRNA)
RNA: UCUCUUUGUAGUUCAUCUCUU
B14: Ib_S1_P3E.1_K3.1_C3.1_H3.1_A3.1_F3.1_[T7A]_[A8T]_T3.1 (ssRNA)
RNA: UCUCUUUGUAUAAUUCUCUU
B15: Ic_S1_P4E.1_K4.1_C4.1_H4.1_A4.1_[T5G]_[A6T]_[T7C]_F4.1_[T8A]_[A9C]_T4.1 (ssRNA)
RNA: UCUCUUUGUAGUCACUCUCUU
B16: Ic_S1_P4E.1_K4.1_C4.1_H4.1_A4.1_[T5G]_[A6T]_[T7C]_F4.1_[A9G]_T4.1 (ssRNA)
RNA: UCUCUUUGUAGUCUGUCUCUU
B17: Ic_S1_P4E.1_K4.1_C4.1_H4.1_A4.1_[T5G]_[A6T]_[T7G]_F4.1_[A9C]_T4.1 (ssRNA)
RNA: UCUCUUUGUAGUGUCUCUCUU
B18: Ic_S1_P4E.1_K4.1_C4.1_H4.1_A4.1_[T5G]_[A6T]_[T7G]_F4.1_[T8C]_[A9C]_T4.1 (ssRNA)
RNA: UCUCUUUGUAGUGCCUCUCUU
B19: Ic_S1_P4E.1_K4.1_C4.1_H4.1_A4.1_[T5G]_[A6C]_F4.1_[A9T]_T4.1 (ssRNA)
RNA: UCUCUUUGUAGCUUUUCUCUU
B20: Ic_S1_P4E.1_K4.1_C4.1_H4.1_A4.1_[T5G]_[A6T]_F4.1_[A9G]_T4.1 (ssRNA)
RNA: UCUCUUUGUAGUUUGUCUCUU
B21: Ic_S1_P4E.1_K4.1_C4.1_H4.1_A4.1_[T5G]_[A6T]_[T7A]_F4.1_[A9C]_T4.1 (ssRNA)
RNA: UCUCUUUGUAGUAUCUCUCUU
B22: Ic_S1_P4E.1_K4.1_C4.1_H4.1_A4.1_[T5G]_[A6T]_[T7G]_F4.1_[T8C]_[A9T]_T4.1 (ssRNA)
RNA: UCUCUUUGUAGUGCUUCUCUU
B23: Ic_S1_P4E.1_K4.1_C4.1_H4.1_A4.1_[T5G]_[A6T]_[T7A]_F4.1_[T8C]_T4.1 (ssRNA)
RNA: UCUCUUUGUAGUACAUCUCUU
B24: Ib_S1_P3E.1_K3.1_C3.1_H3.1_A3.1_F3.1_[T7A]_[A8C]_T3.1 (ssRNA)
RNA: UCUCUUUGUAUAACUCUCUU
B25: Ic_S1_P3E.1_K3.1_C3.1_H3.1_A3.1_F3.1_[T7C]_[A8T]_T3.1 (ssRNA)
RNA: UCUCUUUGUAUACUUCUCUU
B26: Ic_S1_P4E.1_K4.1_C4.1_H4.1_A4.1_[T5G]_[A6T]_[T7A]_F4.1_[T8A]_[A9T]_T4.1 (ssRNA)
RNA: UCUCUUUGUAGUAAUUCUCUU
B27: Ic_S1_P4E.1_K4.1_C4.1_H4.1_A4.1_[T5G]_[A6T]_[T7C]_F4.1_[A9C]_T4.1 (ssRNA)
RNA: UCUCUUUGUAGUCUCUCUCUU
B28: Ic_S1_P4E.1_K4.1_C4.1_H4.1_A4.1_[T5G]_[A6T]_[T7A]_F4.1_[T8A]_[A9C]_T4.1 (ssRNA)
RNA: UCUCUUUGUAGUAACUCUCUU
B29: Ic_S1_P4E.1_K4.1_C4.1_H4.1_A4.1_[T5C]_[A6G]_[T7G]_F4.1_[T8C]_[A9G]_T4.1 (ssRNA)
RNA: UCUCUUUGUACGGCGUCUCUU
B30: Ic_S1_P4E.1_K4.1_C4.1_H4.1_A4.1_[T5G]_[A6T]_F4.1_[T8C]_[A9C]_T4.1 (ssRNA)
RNA: UCUCUUUGUAGUUCCUCUCUU
B31: Ic_S1_P4E.1_K4.1_C4.1_H4.1_A4.1_[T5C]_[A6G]_[T7G]_F4.1_[A9G]_T4.1 (ssRNA)
RNA: UCUCUUUGUACGGUGUCUCUU
B32: Ic_S1_P4E.1_K4.1_C4.1_H4.1_A4.1_[T5G]_[A6T]_[T7C]_F4.1_T4.1 (ssRNA)
RNA: UCUCUUUGUAGUCUAUCUCUU
B33: Ic_S1_P4E.1_K4.1_C4.1_H4.1_A4.1_[T5G]_[A6T]_F4.1_[T8A]_[A9C]_T4.1 (ssRNA)
RNA: UCUCUUUGUAGUUACUCUCUU
B34: Ic_S1_P4E.1_K4.1_C4.1_H4.1_A4.1_[T5G]_[A6T]_[T7A]_F4.1_T4.1 (ssRNA)
RNA: UCUCUUUGUAGUAUAUCUCUU
B35: Ic_S1_P4E.1_K4.1_C4.1_H4.1_A4.1_[T5G]_[A6T]_[T7A]_F4.1_[A9G]_T4.1 (ssRNA)
RNA: UCUCUUUGUAGUAUGUCUCUU
B36: Ic_S1_P4E.1_K4.1_C4.1_H4.1_A4.1_[T5G]_[A6T]_[T7G]_F4.1_[A9G]_T4.1 (ssRNA)
RNA: UCUCUUUGUAGUGUGUCUCUU
B37: Ic_S1_P4E.1_K4.1_C4.1_H4.1_A4.1_[T5G]_[A6T]_[T7C]_F4.1_[T8G]_[A9G]_T4.1 (ssRNA)
RNA: UCUCUUUGUAGUCGGUCUCUU
B38: Ic_S1_P4E.1_K4.1_C4.1_H4.1_A4.1_[T5G]_[A6T]_F4.1_[T8C]_[A9G]_T4.1 (ssRNA)
RNA: UCUCUUUGUAGUUCGUCUCUU
B39: Ic_S1_P4E.1_K4.1_C4.1_H4.1_A4.1_[T5G]_[A6T]_F4.1_[A9C]_T4.1 (ssRNA)
RNA: UCUCUUUGUAGUUUCUCUCUU
B40: Ic_S1_P4E.1_K4.1_C4.1_H4.1_A4.1_[T5G]_[A6T]_[T7A]_F4.1_[T8C]_[A9T]_T4.1 (ssRNA)
RNA: UCUCUUUGUAGUACUUCUCUU
B41: Ic_S1_P4E.1_K4.1_C4.1_H4.1_A4.1_[T5G]_[A6T]_[T7C]_F4.1_[A9T]_T4.1 (ssRNA)
RNA: UCUCUUUGUAGUCUUUCUCUU
B42: Ic_S1_P4E.1_K4.1_C4.1_H4.1_A4.1_[T5G]_[A6T]_F4.1_[T8G]_[A9T]_T4.1 (ssRNA)
RNA: UCUCUUUGUAGUUGUUCUCUU
B43: Ic_S1_P4E.1_K4.1_C4.1_H4.1_A4.1_[T5G]_[A6T]_[T7A]_F4.1_[A9T]_T4.1 (ssRNA)
RNA: UCUCUUUGUAGUAUUUCUCUU
B44: Ic_S1_P4E.1_K4.1_C4.1_H4.1_A4.1_[T5G]_[A6T]_[T7C]_F4.1_[T8G]_[A9T]_T4.1 (ssRNA)
RNA: UCUCUUUGUAGUCGUUCUCUU
B45: Ic_S1_P4E.1_K4.1_C4.1_H4.1_A4.1_[T5G]_[A6T]_[T7C]_F4.1_[T8C]_T4.1 (ssRNA)
RNA: UCUCUUUGUAGUCCAUCUCUU
B46: Ic_S1_P4E.1_K4.1_C4.1_H4.1_A4.1_[T5G]_[A6T]_F4.1_[T8C]_[A9T]_T4.1 (ssRNA)
RNA: UCUCUUUGUAGUUCUUCUCUU

For orientation: Kd means the constant that tells how readily two partners part at equilibrium. Low values mean a tighter complex, high ones a looser complex.

The target in this data set is T1, PUF4 RNA-binding domain (Saccharomyces cerevisiae, UniProt P25339 537-888).
T1 sequence: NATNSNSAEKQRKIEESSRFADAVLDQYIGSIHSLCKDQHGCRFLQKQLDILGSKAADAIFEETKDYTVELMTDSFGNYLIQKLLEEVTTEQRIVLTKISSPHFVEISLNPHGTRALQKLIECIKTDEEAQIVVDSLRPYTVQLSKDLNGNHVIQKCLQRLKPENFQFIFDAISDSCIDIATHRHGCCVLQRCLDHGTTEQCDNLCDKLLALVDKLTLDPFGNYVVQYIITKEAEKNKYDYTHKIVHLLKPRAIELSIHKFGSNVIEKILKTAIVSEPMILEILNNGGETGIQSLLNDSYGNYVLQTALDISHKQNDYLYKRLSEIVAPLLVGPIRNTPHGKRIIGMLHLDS
Kind of data set: Mg; RNA-MaP; 20 mM Na-HEPES pH 7.4, 30 mM KOAc, 0.75 mM MgCl2, 0.1% Tween-20, 5% glycerol, 0.1 mg/mL BSA, 2 mM DTT; 25 C; 0.0125-409.6 nM protein. To be noted: tags: N-His6-TEV cleaved; C-SNAP kept, Cy3B-labelled; label: tethered on chip by stalled RNA polymerase.
On to B1, for which binding was characterised by a dissociation constant (Kd) of 118 nM. This lies in the sub-micromolar range.
The same measure for B2: 502 nM; for B3: more than 2300 nM; for B4: 971 nM.
Under B5 stands 685 nM.
Under B6 stands 625 nM; under B7, 28 nM.
Turning to B8, the Kd is 360 nM.
On to B9, for which the Kd is more than 2300 nM.
Under B10 stands 1490 nM.
The molecule B11 came in with a Kd of 52.3 nM.
Molecule B12 displayed a Kd of 736 nM.
Under B13 stands 1570 nM.
Under B14 stands 9.97 nM.
B15: binding was characterised by a dissociation constant (Kd) of 1760 nM.
The same measure for B16: 406 nM; for B17: 1370 nM; for B18: more than 2300 nM.
Under B19 stands 361 nM.
Under B20 stands 287 nM; under B21, 590 nM.
B22: the Kd is more than 2300 nM.
The same measure for B23: 1720 nM.
The same measure for B24: 47 nM; for B25: 5.59 nM.
Molecule B26 returned a Kd of 1500 nM.
As to B27, the Kd is 658 nM.
B28 registered a Kd of more than 2300 nM.
Turning to B29, the Kd is more than 2300 nM.
Consider B30, for which the Kd was 1260 nM.
Under B31 stands 503 nM; under B32, 21.1 nM.
In the case of B33, the affinity, expressed as Kd, was 982 nM.
For the molecule B34, the affinity, expressed as Kd, was 11.2 nM.
The molecule B35 displayed a Kd of 278 nM.
The same measure for B36: 575 nM; for B37: more than 2300 nM; for B38: more than 2300 nM.
The same measure for B39: 365 nM; for B40: 760 nM.
The molecule B41 registered a dissociation constant Kd of 389 nM.
Under B42 stands 802 nM; under B43, 297 nM; under B44, 1600 nM.
Under B45 stands 1510 nM; under B46, 798 nM.

These data come from publication PMC9352680, “A comprehensive thermodynamic model for RNA binding by the Saccharomyces cerevisiae Pumilio protein PUF4”.
